The values below come from PMC9309721.

The target in one experiment is TFIIB (UniProt Q00403). As to the kind of experiment: FLAG co-immunoprecipitation, TFIIB immunoblot. As to conditions: reference: FLAG-WT-HSF1.
Experiment [1] concerns the target T1, FLAG-tagged WT-HSF1 (human), Q00613.
T1 chain: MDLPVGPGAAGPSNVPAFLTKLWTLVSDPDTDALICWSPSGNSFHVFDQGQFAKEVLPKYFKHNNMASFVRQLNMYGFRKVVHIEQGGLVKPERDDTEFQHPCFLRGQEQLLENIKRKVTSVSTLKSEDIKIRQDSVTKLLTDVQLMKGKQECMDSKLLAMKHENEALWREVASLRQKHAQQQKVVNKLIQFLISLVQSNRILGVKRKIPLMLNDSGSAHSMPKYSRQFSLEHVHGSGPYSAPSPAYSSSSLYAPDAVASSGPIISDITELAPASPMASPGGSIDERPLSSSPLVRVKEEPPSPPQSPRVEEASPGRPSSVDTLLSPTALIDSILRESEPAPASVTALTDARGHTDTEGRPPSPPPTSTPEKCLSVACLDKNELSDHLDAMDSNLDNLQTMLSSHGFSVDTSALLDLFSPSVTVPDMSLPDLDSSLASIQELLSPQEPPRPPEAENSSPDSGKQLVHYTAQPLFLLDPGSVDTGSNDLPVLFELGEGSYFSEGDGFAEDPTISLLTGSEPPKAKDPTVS
As to the kind of experiment: cross-linking + SEC; HEK-293 cells co-expressing AKT1 and WT- or T142A-HSF1, fixed with EGS; RIPA lysate on Superdex 200 Increase 10/300 GL in 50 mM Tris pH 8.0, 150 mM NaCl, 1% NP-40, 4 °C; fractions immunoblotted for HSF1. As to conditions: remark: other sources report otherwise.

For experiment [2] the target is unchanged. Description: cross-linking; HEK-293 cells transfected for 48 h with WT- or T142A-HSF1 with or without AKT1 or CK2; cells fixed with 1 mM EGS for 30 min at RT, quenched with 10 mM Tris pH 7.5, RIPA lysate, SDS/PAGE, immunoblot for HSF1 trimers. Particulars: remark: other sources report otherwise.

With “HSF1 (from UniProt Q00613) FLAG-S326A-HSF1”, the “binding against the reference” value in the experiment with TFIIB (sites S326) is “weaker”.

As to “HSF1 (from UniProt Q00613) FLAG-T527A-HSF1”, the “binding against the reference” value with TFIIB (sites T527) is listed as “lost”.

B1: FLAG-tagged WT-HSF1, Q00613 1-529 (natural protein)
chain: MDLPVGPGAAGPSNVPAFLTKLWTLVSDPDTDALICWSPSGNSFHVFDQGQFAKEVLPKYFKHNNMASFVRQLNMYGFRKVVHIEQGGLVKPERDDTEFQHPCFLRGQEQLLENIKRKVTSVSTLKSEDIKIRQDSVTKLLTDVQLMKGKQECMDSKLLAMKHENEALWREVASLRQKHAQQQKVVNKLIQFLISLVQSNRILGVKRKIPLMLNDSGSAHSMPKYSRQFSLEHVHGSGPYSAPSPAYSSSSLYAPDAVASSGPIISDITELAPASPMASPGGSIDERPLSSSPLVRVKEEPPSPPQSPRVEEASPGRPSSVDTLLSPTALIDSILRESEPAPASVTALTDARGHTDTEGRPPSPPPTSTPEKCLSVACLDKNELSDHLDAMDSNLDNLQTMLSSHGFSVDTSALLDLFSPSVTVPDMSLPDLDSSLASIQELLSPQEPPRPPEAENSSPDSGKQLVHYTAQPLFLLDPGSVDTGSNDLPVLFELGEGSYFSEGDGFAEDPTISLLTGSEPPKAKDPTVS
On to B1, for which the stoichiometry N in experiment [1] and in experiment [2] was 3 each time.
